Reference: publication PMC10139410, “β-Cyclodextrin Polymer-Based Fluorescence Enhancement Strategy via Host–Guest Interaction for Sensitive Assay of SARS-CoV-2”

B1: N protein-binding aptamer (ssDNA)
DNA: GCTGGATGTCGCTTACGACAATATTCCTTAGGGGCACCGCTACATTGACACATCCAGC
B2: Pyrene-labeled N protein binding aptamer (ssDNA)
DNA: B1 DNA
modifications: 5'-SH (so in the source); 3'-pyrene

Key:
[1] = target: T1, SARS-CoV-2 nucleocapsid (N) protein (SARS-CoV-2, UniProt P0DTC9 1-419); assay: circular dichroism; 1 uM each, 30 min at 37 C; 280 nm peak increased; Tris-HCl pH 7.6, 37 C, 30 min; 400 nM aptamer, 240 U/mL Exo I, 1.5 mg/mL beta-CDP; salt not in the material held
[2] = target: T1, SARS-CoV-2 nucleocapsid (N) protein; assay: Exo I protection, agarose gel; 600 nM N protein, 400 nM aptamer, 240 U/mL Exo I; labeled form inferred from text on pyrene; Tris-HCl pH 7.6, 37 C, 30 min; 400 nM aptamer, 240 U/mL Exo I, 1.5 mg/mL beta-CDP; salt not in the material held; conditions: label: 3'-pyrene

| Binder | binding result [1] | binding result [2] |
| --- | --- | --- |
| B1 | binds | – |
| B2 | – | binds |
